Settings in all cases: protein: recombinant; tags: C-terminal SS-his6-GG-ald6 (LCTPSR); chain copies: 2; blunt, one internal G/T mismatch
Series [1] has as its target T1, EcMutS-his6/ald6, AF647-labeled (Escherichia coli, UniProt P23909 1-853).
T1 sequence: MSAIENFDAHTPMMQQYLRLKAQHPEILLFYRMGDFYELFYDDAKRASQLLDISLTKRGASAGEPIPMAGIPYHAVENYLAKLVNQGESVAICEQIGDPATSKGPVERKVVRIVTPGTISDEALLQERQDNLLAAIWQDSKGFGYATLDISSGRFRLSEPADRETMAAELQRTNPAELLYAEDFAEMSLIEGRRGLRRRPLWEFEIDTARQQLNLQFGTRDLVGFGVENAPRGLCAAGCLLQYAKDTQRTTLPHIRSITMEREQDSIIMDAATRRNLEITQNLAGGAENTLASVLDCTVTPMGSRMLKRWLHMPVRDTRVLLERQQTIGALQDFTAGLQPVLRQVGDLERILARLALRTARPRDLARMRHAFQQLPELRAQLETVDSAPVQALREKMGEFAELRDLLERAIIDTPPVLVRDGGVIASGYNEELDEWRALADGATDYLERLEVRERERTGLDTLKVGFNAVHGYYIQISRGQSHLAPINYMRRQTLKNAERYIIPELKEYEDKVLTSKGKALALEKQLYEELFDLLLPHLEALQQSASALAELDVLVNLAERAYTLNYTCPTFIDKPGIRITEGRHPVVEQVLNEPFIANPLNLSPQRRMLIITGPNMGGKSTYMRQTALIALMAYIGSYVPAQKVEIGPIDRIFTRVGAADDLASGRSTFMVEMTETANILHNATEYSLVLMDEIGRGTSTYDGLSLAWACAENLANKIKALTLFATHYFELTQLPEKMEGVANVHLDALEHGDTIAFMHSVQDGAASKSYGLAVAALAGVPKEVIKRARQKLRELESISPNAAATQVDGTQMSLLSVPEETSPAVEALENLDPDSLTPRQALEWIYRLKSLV
Description: SPR; kon 3.44e5 M-1 s-1; koff 8.93e-4 s-1; koff with ATP 0.26 s-1; SPR at 25 C, buffer not shown; EMSA: 25 mM Hepes (GS Buffer, rest not shown), on ice 15 min. (In SPR one partner is held on a chip, and binding of the other changes the refractive index at the surface.)

In series [2] the target is T2, EcMutS-his6/ald6, unlabeled (Escherichia coli, UniProt P23909 1-853).
T2 sequence: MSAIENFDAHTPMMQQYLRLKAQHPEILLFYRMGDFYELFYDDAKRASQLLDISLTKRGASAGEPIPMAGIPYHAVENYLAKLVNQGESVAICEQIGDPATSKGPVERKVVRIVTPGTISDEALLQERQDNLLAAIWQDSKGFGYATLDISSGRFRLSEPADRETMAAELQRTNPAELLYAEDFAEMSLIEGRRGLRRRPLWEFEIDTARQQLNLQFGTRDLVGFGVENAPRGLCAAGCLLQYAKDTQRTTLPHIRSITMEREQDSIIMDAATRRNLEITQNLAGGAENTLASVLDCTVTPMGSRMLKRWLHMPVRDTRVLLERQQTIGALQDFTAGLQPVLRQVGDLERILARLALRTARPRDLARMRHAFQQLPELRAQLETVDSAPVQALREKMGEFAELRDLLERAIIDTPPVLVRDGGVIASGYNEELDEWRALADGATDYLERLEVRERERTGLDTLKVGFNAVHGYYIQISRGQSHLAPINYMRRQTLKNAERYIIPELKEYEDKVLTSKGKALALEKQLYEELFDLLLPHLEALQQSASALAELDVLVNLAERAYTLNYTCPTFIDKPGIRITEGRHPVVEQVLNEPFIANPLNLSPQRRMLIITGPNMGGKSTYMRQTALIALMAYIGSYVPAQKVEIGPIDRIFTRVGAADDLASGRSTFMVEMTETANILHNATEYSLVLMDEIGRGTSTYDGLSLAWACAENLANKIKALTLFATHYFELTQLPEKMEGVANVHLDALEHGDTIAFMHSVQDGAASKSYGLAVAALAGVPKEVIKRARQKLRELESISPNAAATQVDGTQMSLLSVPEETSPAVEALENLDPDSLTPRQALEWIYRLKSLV
Description: SPR; kon 5.29e5 M-1 s-1; koff 6.10e-4 s-1; koff with ATP 0.53 s-1; SPR at 25 C, buffer not shown; EMSA: 25 mM Hepes (GS Buffer, rest not shown), on ice 15 min.

For series [3], the target named is T3, EcMutS-his6/ald6(D835R,R840E), AF555-labeled (Escherichia coli, UniProt P23909 1-853, D835R;R840E).
T3 sequence: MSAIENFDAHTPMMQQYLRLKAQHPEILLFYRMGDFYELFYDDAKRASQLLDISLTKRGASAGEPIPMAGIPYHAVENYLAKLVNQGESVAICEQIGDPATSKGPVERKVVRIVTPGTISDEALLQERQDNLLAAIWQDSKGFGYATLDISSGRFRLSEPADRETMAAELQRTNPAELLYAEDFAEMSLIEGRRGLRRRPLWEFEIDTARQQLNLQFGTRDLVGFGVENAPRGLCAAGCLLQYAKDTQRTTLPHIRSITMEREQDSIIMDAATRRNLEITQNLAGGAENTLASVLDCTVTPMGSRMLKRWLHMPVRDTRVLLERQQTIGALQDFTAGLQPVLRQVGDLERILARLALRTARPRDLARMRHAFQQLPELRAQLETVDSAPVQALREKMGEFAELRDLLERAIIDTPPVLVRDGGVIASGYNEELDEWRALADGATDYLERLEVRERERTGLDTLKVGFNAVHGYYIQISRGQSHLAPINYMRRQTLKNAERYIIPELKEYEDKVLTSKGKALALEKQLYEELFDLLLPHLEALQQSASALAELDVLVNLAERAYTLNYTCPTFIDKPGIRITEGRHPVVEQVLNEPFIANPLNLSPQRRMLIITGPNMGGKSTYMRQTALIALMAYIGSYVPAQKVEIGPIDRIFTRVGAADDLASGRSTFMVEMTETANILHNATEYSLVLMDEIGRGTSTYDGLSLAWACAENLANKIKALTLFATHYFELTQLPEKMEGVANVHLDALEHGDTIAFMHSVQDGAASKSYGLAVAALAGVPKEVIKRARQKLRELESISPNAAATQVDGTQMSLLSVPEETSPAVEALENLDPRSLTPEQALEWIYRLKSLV
Description: SPR; kon 4.37e5 M-1 s-1; koff 24.48e-4 s-1; koff with ATP 0.45 s-1; SPR at 25 C, buffer not shown; EMSA: 25 mM Hepes (GS Buffer, rest not shown), on ice 15 min.

The target of series [4] is T4, EcMutS-his6/ald6(D835R,R840E), unlabeled (Escherichia coli, UniProt P23909 1-853, D835R;R840E).
T4 sequence: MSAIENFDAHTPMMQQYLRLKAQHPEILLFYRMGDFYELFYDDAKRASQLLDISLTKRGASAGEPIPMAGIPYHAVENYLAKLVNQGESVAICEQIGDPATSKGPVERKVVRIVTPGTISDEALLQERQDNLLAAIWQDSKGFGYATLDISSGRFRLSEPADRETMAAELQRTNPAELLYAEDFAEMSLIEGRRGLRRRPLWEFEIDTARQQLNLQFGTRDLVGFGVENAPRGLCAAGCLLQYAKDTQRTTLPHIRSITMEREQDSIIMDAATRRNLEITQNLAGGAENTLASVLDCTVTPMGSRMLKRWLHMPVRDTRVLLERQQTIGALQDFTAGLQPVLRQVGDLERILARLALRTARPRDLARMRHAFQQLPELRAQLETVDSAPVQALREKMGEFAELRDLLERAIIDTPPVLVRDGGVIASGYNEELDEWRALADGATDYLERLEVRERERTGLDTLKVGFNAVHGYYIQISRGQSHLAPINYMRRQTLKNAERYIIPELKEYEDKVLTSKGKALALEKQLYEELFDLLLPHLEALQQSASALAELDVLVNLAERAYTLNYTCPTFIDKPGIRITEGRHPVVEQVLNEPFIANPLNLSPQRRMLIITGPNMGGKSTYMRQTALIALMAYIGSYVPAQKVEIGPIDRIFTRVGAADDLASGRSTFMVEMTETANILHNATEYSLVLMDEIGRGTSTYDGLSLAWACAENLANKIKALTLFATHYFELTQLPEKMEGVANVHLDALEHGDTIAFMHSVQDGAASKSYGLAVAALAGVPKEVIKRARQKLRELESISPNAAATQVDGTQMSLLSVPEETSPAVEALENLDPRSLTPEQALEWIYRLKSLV
Description: SPR; kon 9.48e5 M-1 s-1; koff 33.02e-4 s-1; koff with ATP 0.48 s-1; SPR at 25 C, buffer not shown; EMSA: 25 mM Hepes (GS Buffer, rest not shown), on ice 15 min.

B1: G/T mismatch DNA (SPR) (dsDNA)
DNA 1: AACTATAGGGCGAATTGGGTACCGCTGAATTGCACCGAGCTTGATCCTCGATGATCCTAAGCTAAGCTTCAGCTCCAGCTTT
DNA 2: AAAGCTGGAGCTGAAGCTTAGCTTAGGATCATCGAGGATCGAGCTCGGTGCAATTCAGCGGTACCCAATTCGCCCTATAGTT
For the molecule B1, the dissociation constant (Kd) (commonly the constant that tells how readily two partners part at equilibrium) was determined as 2.63 ± 0.49 nM in series [1], 1.25 ± 0.53 nM in series [2], 5.75 ± 1.51 nM in series [3] and 3.85 ± 1.78 nM in series [4].

These data come from paper PMC4652282, “An Efficient Site-Specific Method for Irreversible Covalent Labeling of Proteins with a Fluorophore”.
